± gives the standard deviation of the averaged measurements.
B1: library; a variant is named by its letters at N, in order (parent)
chain: GCUGUCACCGAGAAACUGUGAAGUAUAUCUUAAACCUGGGCACUUAAAAGAUAUAUGGAGUUAGUAGUGCAACCUGCUCGGUCUGAUGAGUCCNNNNNNGGACGAAACAGC

How the values were obtained:
cyclic di-GMP [1] = variants of: B1; assay: FACS-Seq fitted mean relative fluorescence mCherry/BFP without ligand (log10 relative fluorescence); HEK293T; ligand: cyclic di-GMP (c-di-GMP-II aptamer); higher = higher reporter protein expression; details: ligand present: no
How it was run: (§1)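 Sorting into 6 bins by mCherry/BFP followed 48 h of incubation with or without ligand. The cells were enriched HEK293T libraries lentivirally bearing an mCherry reporter with the ribozyme switch and an EF1α-BFP marker, and bin genomic DNA was PCR-amplified, barcoded and sequenced on MiSeq. Fluorescence is the fitted normal mean of the bin counts. Means were fitted on log10(mCherry/BFP), scaled to five spiked-in control ribozymes.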

cyclic di-GMP [2] = variants of: B1; assay: normalized RNA/DNA level without ligand (relative to sTRSVctl = 100) (log10 (% of sTRSVctl)); HEK293T; ligand: cyclic di-GMP (c-di-GMP-II aptamer); higher = less ribozyme self-cleavage, higher mRNA level; details: reporter: mCherry (pCS4076), ligand present: no
How it was run: (§2)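 Ribozyme switch library plasmids with mCherry reporters (eGFP in certain ligand experiments) went into HEK293T cells at 4 µg per 6-well well. Where ligand was used, it was applied 1 h before transfection, and total RNA was extracted with EDTA 72 h later for reverse transcription, amplification, barcoding and sequencing. RNA level is the RNA-to-DNA read ratio normalized to a spiked-in non-cleaving sequence or to the leading sequences, then scaled and log-transformed. Scaling was ×100 with log10, the leading set comprised 25 sequences, and the cutoff was ≥100 DNA reads.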

cyclic di-GMP [3] = variants of: B1; assay: FACS-Seq fitted mean relative fluorescence mCherry/BFP with ligand (log10 relative fluorescence); HEK293T; ligand: cyclic di-GMP (c-di-GMP-II aptamer); ligand concentration (+) FACS-Seq: 1 mM; higher = higher reporter protein expression; details: ligand present: yes
How it was run: as §1

cyclic di-GMP [4] = variants of: B1; assay: normalized RNA/DNA level with ligand (relative to sTRSVctl = 100) (log10 (% of sTRSVctl)); HEK293T; ligand: cyclic di-GMP (c-di-GMP-II aptamer); ligand concentration (+) RNA-Seq: 1 mM; higher = less ribozyme self-cleavage, higher mRNA level; details: reporter: mCherry (pCS4076), ligand present: yes
How it was run: as §2

Variant: ACGCAG
- FACS-Seq fitted mean (log10) (cyclic di-GMP [1]): -0.51 ± 0.13
- normalized RNA/DNA level without ligand (log10) (cyclic di-GMP [2]): 1.677 ± 0.0051
- FACS-Seq fitted mean (log10) (cyclic di-GMP [3]): -0.377 ± 0.0065
- normalized RNA/DNA level with ligand (log10) (cyclic di-GMP [4]): 1.81 ± 0.094

Variant: ACCUGA
- FACS-Seq fitted mean (log10) (cyclic di-GMP [1]): -0.424 ± 0.033
- normalized RNA/DNA level without ligand (log10) (cyclic di-GMP [2]): 1.52 ± 0.032
- FACS-Seq fitted mean (log10) (cyclic di-GMP [3]): -0.159 ± 0.035
- normalized RNA/DNA level with ligand (log10) (cyclic di-GMP [4]): 1.72 ± 0.1

Variant: ACGGAG
- FACS-Seq fitted mean (log10) (cyclic di-GMP [1]): -0.541 ± 0.036
- normalized RNA/DNA level without ligand (log10) (cyclic di-GMP [2]): 1.46 ± 0.12
- FACS-Seq fitted mean (log10) (cyclic di-GMP [3]): -0.151 ± 0.062
- normalized RNA/DNA level with ligand (log10) (cyclic di-GMP [4]): 1.61 ± 0.15

Variant: ACGGAA
- FACS-Seq fitted mean (log10) (cyclic di-GMP [1]): -0.62 ± 0.042
- normalized RNA/DNA level without ligand (log10) (cyclic di-GMP [2]): 1.31 ± 0.097
- FACS-Seq fitted mean (log10) (cyclic di-GMP [3]): -0.325 ± 0.031
- normalized RNA/DNA level with ligand (log10) (cyclic di-GMP [4]): 1.47 ± 0.13

Variant: ACGGAU
- FACS-Seq fitted mean (log10) (cyclic di-GMP [1]): -0.662 ± 0.045
- normalized RNA/DNA level without ligand (log10) (cyclic di-GMP [2]): 1.29 ± 0.16
- FACS-Seq fitted mean (log10) (cyclic di-GMP [3]): -0.374 ± 0.0087
- normalized RNA/DNA level with ligand (log10) (cyclic di-GMP [4]): 1.4 ± 0.15

Variant: UCUGCU
- FACS-Seq fitted mean (log10) (cyclic di-GMP [1]): -0.406 ± 0.013
- normalized RNA/DNA level without ligand (log10) (cyclic di-GMP [2]): 1.786 ± 0.0052
- FACS-Seq fitted mean (log10) (cyclic di-GMP [3]): -0.176 ± 0.02
- normalized RNA/DNA level with ligand (log10) (cyclic di-GMP [4]): 1.88 ± 0.081

Variant: CCUAUA
- FACS-Seq fitted mean (log10) (cyclic di-GMP [1]): -0.492 ± 0.012
- normalized RNA/DNA level without ligand (log10) (cyclic di-GMP [2]): 1.43 ± 0.12
- FACS-Seq fitted mean (log10) (cyclic di-GMP [3]): -0.121 ± 0.047
- normalized RNA/DNA level with ligand (log10) (cyclic di-GMP [4]): 1.65 ± 0.067

Variant: UCGAAA
- FACS-Seq fitted mean (log10) (cyclic di-GMP [1]): -0.535 ± 0.0031
- normalized RNA/DNA level without ligand (log10) (cyclic di-GMP [2]): 1.32 ± 0.069
- FACS-Seq fitted mean (log10) (cyclic di-GMP [3]): -0.158 ± 0.043
- normalized RNA/DNA level with ligand (log10) (cyclic di-GMP [4]): 1.58 ± 0.12

Variant: ACUGCU
- FACS-Seq fitted mean (log10) (cyclic di-GMP [1]): -0.0841 ± 0.15
- normalized RNA/DNA level without ligand (log10) (cyclic di-GMP [2]): 1.616 ± 0.01
- FACS-Seq fitted mean (log10) (cyclic di-GMP [3]): 0.249 ± 0.013
- normalized RNA/DNA level with ligand (log10) (cyclic di-GMP [4]): 1.8 ± 0.14

Variant: GCUGUU
- FACS-Seq fitted mean (log10) (cyclic di-GMP [1]): -0.596 ± 0.057
- normalized RNA/DNA level without ligand (log10) (cyclic di-GMP [2]): 1.63 ± 0.059
- FACS-Seq fitted mean (log10) (cyclic di-GMP [3]): -0.418 ± 0.084
- normalized RNA/DNA level with ligand (log10) (cyclic di-GMP [4]): 1.79 ± 0.082

Variant: GCUGUG
- FACS-Seq fitted mean (log10) (cyclic di-GMP [1]): -0.283 ± 0.07
- normalized RNA/DNA level without ligand (log10) (cyclic di-GMP [2]): 1.64 ± 0.018
- FACS-Seq fitted mean (log10) (cyclic di-GMP [3]): -0.00737 ± 0.013
- normalized RNA/DNA level with ligand (log10) (cyclic di-GMP [4]): 1.79 ± 0.085

Variant: GCUGUA
- FACS-Seq fitted mean (log10) (cyclic di-GMP [1]): -0.0986 ± 0.038
- normalized RNA/DNA level without ligand (log10) (cyclic di-GMP [2]): 1.6 ± 0.04
- FACS-Seq fitted mean (log10) (cyclic di-GMP [3]): 0.213 ± 0.017
- normalized RNA/DNA level with ligand (log10) (cyclic di-GMP [4]): 1.74 ± 0.12

Variant: ACGAUU
- FACS-Seq fitted mean (log10) (cyclic di-GMP [1]): -0.694 ± 0.056
- normalized RNA/DNA level without ligand (log10) (cyclic di-GMP [2]): 1.2 ± 0.13
- FACS-Seq fitted mean (log10) (cyclic di-GMP [3]): -0.341 ± 0.036
- normalized RNA/DNA level with ligand (log10) (cyclic di-GMP [4]): 1.41 ± 0.19

Variant: ACGAUG
- FACS-Seq fitted mean (log10) (cyclic di-GMP [1]): -0.381 ± 0.017
- normalized RNA/DNA level without ligand (log10) (cyclic di-GMP [2]): 1.55 ± 0.084
- FACS-Seq fitted mean (log10) (cyclic di-GMP [3]): -0.168 ± 0.022
- normalized RNA/DNA level with ligand (log10) (cyclic di-GMP [4]): 1.72 ± 0.14

Variant: GCGAAU
- FACS-Seq fitted mean (log10) (cyclic di-GMP [1]): -0.502 ± 0.029
- normalized RNA/DNA level without ligand (log10) (cyclic di-GMP [2]): 1.45 ± 0.057
- FACS-Seq fitted mean (log10) (cyclic di-GMP [3]): -0.149 ± 0.079
- normalized RNA/DNA level with ligand (log10) (cyclic di-GMP [4]): 1.64 ± 0.14

Variant: ACUGUA
- FACS-Seq fitted mean (log10) (cyclic di-GMP [1]): -0.443 ± 0.033
- normalized RNA/DNA level without ligand (log10) (cyclic di-GMP [2]): 1.51 ± 0.076
- FACS-Seq fitted mean (log10) (cyclic di-GMP [3]): -0.138 ± 0.021
- normalized RNA/DNA level with ligand (log10) (cyclic di-GMP [4]): 1.76 ± 0.094

Variant: CCGCUU
- FACS-Seq fitted mean (log10) (cyclic di-GMP [1]): -0.424 ± 0.011
- normalized RNA/DNA level without ligand (log10) (cyclic di-GMP [2]): 1.557 ± 0.013
- FACS-Seq fitted mean (log10) (cyclic di-GMP [3]): -0.124 ± 0.0085
- normalized RNA/DNA level with ligand (log10) (cyclic di-GMP [4]): 1.79 ± 0.076

Variant: GCGUCG
- FACS-Seq fitted mean (log10) (cyclic di-GMP [1]): -0.555 ± 0.037
- normalized RNA/DNA level without ligand (log10) (cyclic di-GMP [2]): 1.64 ± 0.037
- FACS-Seq fitted mean (log10) (cyclic di-GMP [3]): -0.312 ± 0.016
- normalized RNA/DNA level with ligand (log10) (cyclic di-GMP [4]): 1.77 ± 0.11

Source: the supplement of paper PMC6757056
